From the supplement of paper PMC12042874 come the findings set out here.

This series is described as follows: amyloid nucleation score (Sup35N fusion, yeast selection) (log enrichment); library NNK2; higher = more nucleation; inactive = no reads after selection. Summed up: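 Libraries of peptides of 20 random codons fused to Sup35N were expressed in psi-negative yeast and induced 24 hours with 100 μM copper sulfate. Selection was 7 days at 30°C on medium lacking adenine and uracil, and plasmid inserts were Illumina-sequenced before and after selection. Nucleation score is the DiMSum log enrichment of output over input reads, centred on the mode score of non-aggregating sequences, and sequences with under 100 input reads were left out.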

± gives the uncertainty stated by the source.

Regarding QGGMMWGLLSYCEVLDDSDV, the amyloid nucleation score is -0.08 ± 1.

As to LDISSDPFFSS, the amyloid nucleation score is -1.25 ± 1.1.

VRLTMQYGHVYPGCSLLPYV: the amyloid nucleation score amounted to 4.75 ± 0.049.

DNLSGMIPTKTVDSSRP: the amyloid nucleation score was found to be 0.611 ± 0.81.

In turn, FDWQRLMG yielded an amyloid nucleation score of 0.196 ± 0.64.

As to KVFSNIVMLLSVRLCCLMKI, the amyloid nucleation score is -1.58 ± 1.1.

As for EGQSGAILGLMRGTSWVESA, the amyloid nucleation score was 0.984 ± 0.32.

GLMMPYL displayed an amyloid nucleation score of 0.062 ± 0.39.

As for ARRVQRKSIPTFVSSAMMSD, the amyloid nucleation score is -0.25 ± 0.36.

Turning to KCRHFCRCETCTRYDPVHIL, the amyloid nucleation score was determined as 1 ± 0.53.

As for GSRYTEKIPGNRNRSRISL, the amyloid nucleation score was -0.484 ± 0.35.

Take DYTSCEDVLSVVRPWNYNVE: the amyloid nucleation score was 0.714 ± 0.47.

The substance TGSWNGCVKWASRLKRAGGR gave an amyloid nucleation score of 0.643 ± 0.64.

For the substance YFDSEPCLHFPCLVEGFRGW, the amyloid nucleation score is -0.54 ± 1.1.

In turn, YSWKFFCRWNEQD displayed an amyloid nucleation score of 1.04 ± 0.59.

On to MGFIRINWLNSVLRSPPTHR, for which the amyloid nucleation score turned out to be 5.527 ± 0.044.

As to RKSYGRSWSSGNLYYNLHGD, the amyloid nucleation score is -1.18 ± 1.1.

HPSLVAGDWRFTGPLFCSLG: the amyloid nucleation score stood at 4.02 ± 0.071.

The substance VIAVCLVLVSSDVKIGTRMG came in with an amyloid nucleation score of 1.84 ± 0.16.

The substance KMAIGLCVSTLQ returned an amyloid nucleation score of 0.333 ± 0.42.

Substance KVIPVALNTRIAWGTHRLMM registered an amyloid nucleation score of 0.958 ± 0.27.

EIFFKCGFLLLGCDRPGRVR yielded an amyloid nucleation score of 0.413 ± 0.43.

FEFSPQSRCTGFLSVVCMVE returned an amyloid nucleation score of 0.042 ± 0.5.

Substance VYVFDIVRLG showed an amyloid nucleation score of 0.465 ± 0.8.

For the substance SIRSFSFISESNQLLEHVRK, the amyloid nucleation score amounted to 0.119 ± 0.54.

As for LNLSYIKAVTSRFAADYVL, the amyloid nucleation score turned out to be 0.523 ± 0.18.

In the case of SDSSRFVDKGSYRYKRREWE, the amyloid nucleation score is -0.161 ± 0.65.

In the case of FSGLTDHFRSYLMYSAWTNI, the amyloid nucleation score is -0.238 ± 0.48.

KLCKF came in with an amyloid nucleation score of 3.27 ± 0.073.

As for SLYKHSTHWRLCSTMAIVKP, the amyloid nucleation score is 0.953 ± 0.51.

For FTMYPITG, the amyloid nucleation score was 0.311 ± 0.29.

As for LSHRNPASRNYRPWQLNC, the amyloid nucleation score came to 0.245 ± 0.29.

Take YYVLWSGVGIVMDSAYDTIC: the amyloid nucleation score was -0.017 ± 1.

Consider MCDLDDRKTTLSPWLRSSLG, for which the amyloid nucleation score stood at 1.14 ± 0.35.

Consider STSWGSRSVDCC, for which the amyloid nucleation score is -0.609 ± 0.25.

Substance VWALKGMIYN had an amyloid nucleation score of 0.33 ± 0.17.

As to IWIKVTRLRVGFLKRVLVVA, the amyloid nucleation score is -1.44 ± 0.55.

On to MITWCHIVALSNVGTVVSYN, for which the amyloid nucleation score result is “inactive”.

With QGNSETGGNMCYDASCWLYG, the amyloid nucleation score is -0.064 ± 0.45.

VAGSS: the amyloid nucleation score was -0.101 ± 0.29.

As for SPHASMTIVIF, the amyloid nucleation score was found to be 1.04 ± 0.22.

Turning to LRLLISV, the amyloid nucleation score was found to be 0.306 ± 0.25.

In turn, EGTIWRVSW showed an amyloid nucleation score of 0.392 ± 0.56.

Regarding TVNFYKRWSDCQLMSFIVRV, the amyloid nucleation score result is “inactive”.

For YGTWKVRKCGLSIFGVGGPD, the amyloid nucleation score was -0.303 ± 0.63.

Turning to CEEFMKFFAGYQTHVLVFSR, the amyloid nucleation score entry is “inactive”.

As for RIVGDLICDVSSSQISTSHT, the amyloid nucleation score is -0.291 ± 0.48.

In turn, MFDLQVRTWFWAF showed an amyloid nucleation score of 3.03 ± 0.11.

HVIVMYGSIY displayed an amyloid nucleation score of 3.19 ± 0.12.

For HSFNPNTCYLKGIDDALLGF, the amyloid nucleation score is -0.838 ± 0.62.

As to YIWYCRMPTSSNTVSNL, the amyloid nucleation score result is “inactive”.

CVGGWWPRQRLFCIWFIIAV had an amyloid nucleation score of 1.72 ± 0.31.

Turning to YFFRVSYVEFVRCFGFSCRW, the amyloid nucleation score was -0.846 ± 0.41.

Regarding RYRWARLHGVLVHDWLLLIW, the amyloid nucleation score entry is “inactive”.

As to HCHWWEGWRVEVYCLFPVTT, the amyloid nucleation score was 7.852 ± 0.064.

In turn, LMMSVWF came in with an amyloid nucleation score of 5.48 ± 0.063.

For the substance LVAFLGQIEPSRTQRTLGSG, the amyloid nucleation score was 0.001 ± 0.39.

As for VFEYFRCPYIHNLLFFSAWL, the amyloid nucleation score amounted to 1.9 ± 0.19.

For the substance TGLTLVV, the amyloid nucleation score was -0.094 ± 1.

Regarding YGSFWTFRFLGT, the amyloid nucleation score is 4.12 ± 0.073.

As to IKYNEVVVVRWEANGRFE, the amyloid nucleation score amounted to 4 ± 0.063.

For the substance CCIRQCNMRIKADDQRRDVI, the amyloid nucleation score was found to be 0.109 ± 0.53.

In the case of KRVFKLSESTTRVIMWGRYS, the amyloid nucleation score result was “inactive”.

As for RHNRC, the amyloid nucleation score is -0.117 ± 0.79.

Take SCLVVLHIIAVISMVFSSIL: the amyloid nucleation score entry is “inactive”.

In the case of GHSLYPWSALTPLL, the amyloid nucleation score result was “inactive”.

The substance CFIKVAVNWQL returned an amyloid nucleation score of 8.826 ± 0.057.

Consider MDTSYMVLCYKSQRRRSGSR, for which the amyloid nucleation score turned out to be 0.776 ± 0.2.

With YWTPYCIVIH, the amyloid nucleation score was -0.965 ± 0.78.

ALVAWVVSYYLALLCSPRQS: the amyloid nucleation score was -0.1 ± 0.74.

As to MSFVDEYCGGEVTISEPSMS, the amyloid nucleation score is -0.545 ± 0.76.

As to YYVVLGSSM, the amyloid nucleation score was -0.018 ± 0.42.

On to FTCITIGVFELAQACPIYGG, for which the amyloid nucleation score came to 6.15 ± 0.071.

In the case of GRRMIRAERTIRLIIHVRSL, the amyloid nucleation score worked out at 0.767 ± 0.6.

Take SSRSTCNINSYELSVSVQLR: the amyloid nucleation score worked out at 5.35 ± 0.075.

For QNYARL, the amyloid nucleation score was -1.22 ± 1.1.

On to CIYRHAFVLFTKPLNFGRVR, for which the amyloid nucleation score is -0.166 ± 0.49.

Turning to NYEGNGRVVITLLLGSNWYR, the amyloid nucleation score was 4.04 ± 0.086.

In the case of MNHISLFFRSEVQVCGVFC, the amyloid nucleation score stood at 8.609 ± 0.052.

With SNGCQTRADGLTECDICKPS, the amyloid nucleation score was found to be 0.33 ± 0.24.

The substance KYVWSVEGKVAVAGVAMSCA registered an amyloid nucleation score of 0.025 ± 1.1.

With PVCCFAHMIIHYNCLGQKAY, the amyloid nucleation score was 2.08 ± 0.12.

NLVLRPR: the amyloid nucleation score result is “inactive”.

Consider CFCWLLNSNLKGNLSRGRHL, for which the amyloid nucleation score is -0.337 ± 1.1.

On to LLLITVVIRCRSWVWGWLIS, for which the amyloid nucleation score was -0.358 ± 0.74.

Substance MCPDKARGTMVCTERTPRLM yielded an amyloid nucleation score of 0.793 ± 0.15.

Turning to SDNTLCLTGDSAYN, the amyloid nucleation score turned out to be 0.307 ± 0.2.

LKWQSYG yielded an amyloid nucleation score of 0.952 ± 0.28.

LSGFV: the amyloid nucleation score is -0.554 ± 0.64.

Regarding MAFCCLSVRYTIGRVVAFMY, the amyloid nucleation score is -0.4 ± 0.64.

For VYLGIFRL, the amyloid nucleation score is 2.76 ± 0.13.

Turning to LMKLNSTLSFDYFPLT, the amyloid nucleation score was -0.166 ± 0.65.

In the case of TSLSVVSGFLAFSGSPHSGT, the amyloid nucleation score is 4.39 ± 0.05.

With CVACLDM, the amyloid nucleation score result was “inactive”.

As for DTVISCLGVG, the amyloid nucleation score was -0.087 ± 1.

For RSSGLIGLGWKQI, the amyloid nucleation score was -1.67 ± 0.75.

In the case of FLSINISISRVLLSDCTS, the amyloid nucleation score is 3.05 ± 0.12.

Substance TRWCYSDFPMVKLFLLKFIT registered an amyloid nucleation score of 0.416 ± 0.8.

Regarding PKRFVLGY, the amyloid nucleation score is -1.55 ± 0.62.

Consider LNYDNFE, for which the amyloid nucleation score result is “inactive”.

Take CCILVSWFGIHSRCGVRCAR: the amyloid nucleation score turned out to be 0.877 ± 0.3.

YNVDDCSHRDRFIDNRDSEC: the amyloid nucleation score result is “inactive”.

For IAIPSDF, the amyloid nucleation score is -0.214 ± 0.49.

For HLTNLDFT, the amyloid nucleation score was -1.1 ± 0.44.

For NKRSCNGCGSRAHQDSL, the amyloid nucleation score was -0.176 ± 1.1.

RMCMAIKERSY came in with an amyloid nucleation score of 0.508 ± 0.38.

GCSAQACYK registered an amyloid nucleation score of 1.03 ± 0.23.

The substance GVRLDFYGNHFLWPAVSRGR returned an amyloid nucleation score of 3.63 ± 0.099.

On to RFLLQS, for which the amyloid nucleation score is -0.39 ± 0.61.

LLFPM displayed an amyloid nucleation score of 0.647 ± 0.8.

WLMTYFNISSGFKSVTWVES registered an amyloid nucleation score of 3.69 ± 0.11.

On to ARFFLHFG, for which the amyloid nucleation score was 6.2 ± 0.074.

Turning to FNLTICSLDVPTFL, the amyloid nucleation score was -0.549 ± 1.

As to YFYITTCSGMSTDVFMNLLT, the amyloid nucleation score is -0.422 ± 1.

For the substance SVLIFATRKCLYFYLGFMR, the amyloid nucleation score is -1.66 ± 0.45.

SVGVTVSRVASREGSSRSRA came in with an amyloid nucleation score of 0.573 ± 0.36.

Substance VILYNGFDLSGSD showed an amyloid nucleation score of 0.286 ± 0.44.

Turning to LVVKGDLFAIYVCPCLCRGS, the amyloid nucleation score stood at 9.397 ± 0.051.

Regarding GSGGWLAGHKTVK, the amyloid nucleation score was determined as 0.174 ± 1.

SDLFVNICCRPNRMGV: the amyloid nucleation score is -0.521 ± 0.48.

Consider SLVCM, for which the amyloid nucleation score is -0.713 ± 0.29.

Turning to YMRGITHSAGCSSLAINVEH, the amyloid nucleation score is -1.23 ± 1.1.

The substance GAMNCRVSSKTRWCDTHMVP registered an amyloid nucleation score of 1.53 ± 0.52.

Regarding FYSFLINVPQCPER, the amyloid nucleation score amounted to 0.636 ± 0.81.

As to WQRLKLSEKLVGSAVPLKAG, the amyloid nucleation score is 4.44 ± 0.11.

On to RLLWLPLHSFMGMDTPSGVY, for which the amyloid nucleation score is 0.448 ± 0.6.

Consider DFFFCFRYTDLEQE, for which the amyloid nucleation score is -0.195 ± 0.61.

RYIGGSLFFRYNIVGKRQGV: the amyloid nucleation score was 3.81 ± 0.064.

In the case of FGNALA, the amyloid nucleation score was -1.15 ± 0.61.

As to SNFPWPMERPEFSDDSVFWA, the amyloid nucleation score is -0.313 ± 0.76.

CRYPFTPACTYMNLG: the amyloid nucleation score was -0.114 ± 1.

Consider FISSMGRVW, for which the amyloid nucleation score is -1 ± 0.55.

Consider TDLYTCDVLRVLVCAH, for which the amyloid nucleation score is -0.011 ± 0.45.

For the substance NQVSIIHWWAAYDYWSPM, the amyloid nucleation score was -0.163 ± 0.6.

Substance FLSWCFW came in with an amyloid nucleation score of 0.841 ± 0.42.

KSPPFMGSAERVSRRNGRGL: the amyloid nucleation score is -0.417 ± 0.36.

SSFHWPIKSRDAGVAWSRGG yielded an amyloid nucleation score of 2.07 ± 0.18.

Substance RTFVVNQVEWDVYIWRSGSV showed an amyloid nucleation score of 0.004 ± 0.56.

As for LFIYYWYLLFYGSPYIWLPV, the amyloid nucleation score is -0.363 ± 1.1.

As to VMIIFLDNKRYGKAPNCGRM, the amyloid nucleation score was 7.263 ± 0.07.

Regarding TALDAGHA, the amyloid nucleation score was -1.19 ± 0.45.

Substance GGWLAWVRKSYVIVFVWGGG had an amyloid nucleation score of 0.257 ± 0.46.
